Measured values as given in patent US20230212319A1, “NOVEL ANTIGEN BINDING DOMAINS AND SYNTHETIC ANTIGEN RECEPTORS INCORPORATING THE SAME” (University of Southern California, priority 2020, published 2023).

Tests used:
Type in all cases: cell-based
RAJI-CD19-KO cells = experiment: JNG assay, co-culture with RAJI-CD19-KO cells; details: for NFAT-GFP ASSAY: Raji-CD19-KO: co-culture with Raji-CD19-KO
Protocol: Cellular supernatant is collected and assayed for the induction of cytokines (e.g., IL2).
JNG (Jurkat cells expressing EGFP under an NFAT promoter) were infected with lentiviral vectors encoding different single chain and multi-chain SARs by spinfection in the presence of 8 µg/ml of Polybrene® (Sigma, Catalog no. H9268). The Jurkat-NFAT-GFP cells are engineered in such a way that the IL-2 promoter, which carries NFAT binding sites, is cloned upstream of the GFP gene. These cells have been used to study signaling via TCR and CAR. The different SARs were stably expressed in Jurkat NFAT-GFP cells by lentiviral mediated gene transfer, followed by selection with puromycin or blasticidin. No drug selection was used in case the construct lacked an antibiotic resistance gene. The SAR-expressing Jurkat-NFAT-GFP cells were cocultured with the target cells at E:T ratio of approximately 1:2 for approximately 4 hours to 18 hours. When the interaction between SIRs and their target antigen results in activation of the NFAT pathway, GFP expression is induced. […] GFP expression was monitored by FACS analysis. The Jurkat-NFAT-GFP (parental) cells were used as control. The structure of different constructs can be determined based on their names. […] The sequence of the other constructs in the table can be similarly determined from their names and by referring to the different Tables of this disclosure that provide the names and SEQ ID NO of the different modules. Alternatively, the composition and modular architecture of the different SAR constructs can be determined from their sequences by bioinformatics tools, including using nucleic acid and amino acids homology searches. A SAR is considered positive in the assay in case the SAR expressing Jurkat-NFAT-GFP cells show greater % GFP positive cells when cultured with the target cell line as compared to parental Jurkat-NFAT-GFP cells. […] In general, the number +/-, +, 2+, 3+, 4+, 5+ refer to approximately 5%, 10%, 20%, 30%, 40% and 50% GFP positive cells. The % of GFP induction in the above assay is dependent not only the relative strength of the SAR but also, among other factors, on the relative level of expression of the SAR in the JNG cells and the relative level of expression of the target antigen in the target cell line. To control for the difference in gene transduction efficiency of the different SAR constructs, the experiment was conducted with JNG cells transduced with SAR constructs co-expressing a drug resistance gene (e.g., puromycin or PAC) followed by drug selection to generate a stable population of SAR-expressing cells. It is to be noted that the drug resistance gene (e.g., PAC) in the SAR constructs is optional and in vivo studies were conducted with SAR constructs lacking the PAC gene.

RAJI cells = experiment: JNG assay, co-culture with RAJI cells; details: for NFAT-GFP ASSAY: Raji: JNG cells expressing construct, co-culture with Raji
Outline: (§1)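 Read-out is NFAT-driven GFP measured by flow cytometry after ~4–18 h co-culture of SAR-expressing JNG cells with target cells (E:T about 1:2). SARs were introduced by lentiviral spinfection and selected with puromycin or blasticidin when possible; scores (+/- to 5+ ≈ 5–50% GFP+) are relative to parental JNG cells.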

L363 cells = experiment: JNG assay, co-culture with L363 cells; details: co-culture with L363 cells
Outline: as §1

Row | Molecule | GFP induction / activity (RAJI-CD19-KO cells; co-culture with RAJI-CD19-KO cells) | GFP induction / activity (RAJI cells; co-culture with RAJI cells) | GFP induction / activity (L363 cells) | NFAT-GFP ASSAY: Raji-CD19-KO (RAJI-CD19-KO cells) | NFAT-GFP ASSAY: Raji (RAJI cells)
1 | CD8SP-BCMA-FHVH-93-G4S-TCR-Vg9-F-P2A-IgHSP-CD20-vHH2-HCD25-G4S-TCR-Vd2-F-F2A-PAC (protein) MALPVTALLLPLALLLHAARPACEVQLLESGGGLIQPGGSLRLSCAASGFTFSSHAMTWVRQAPGKGLEWVSAISGSGDYTHYADSVKGRFTISRDNSKNTVYLQMNSLRAEDSAVYYCAKDEDGGSLLGHRGQGTLVTVSSGTGGGGSGGGGSGGGGSEFAGHLEQPQISSTKTLSKTARLECVVSGITISATSVYWYRERPGEVIQFLVSISYDGTVRKESGIPSGKFEVDRIPETSTSTLTIHNVEKQDIATYYCALWEAQQELGKKIKVFGPGTKLIITDKQLDKQLDADVSPKPTIFLPSIAETKLQKAGTYLCLLEKFFPDVIKIHWQEKKSNTILGSQEGNTMKTNDTYMKFSWLTVPEKSLDKEHRCIVRHENNKNGVDQEIIFPPIKTDVITMDPKDNCSKDANDTLLLQLTNTSAYYMYLLLLLKSVVYFAIITCCLLRRTAFCCNGEKSRAKRSGSGATNFSLLKQAGDVEENPGPTSATMDWIWRILFLVGAATGAHSGPQVQLQESGGGLAQAGGSLRLSCAASGRTFSMGWFRQAPGKEREFVAAITYSGGSPYYASSVRGRFTISRDNAKNTVYLQMNSLKPEDTAVYYCAANPTYGSDWNAENWGQGTQVTVSSGSGGGGSGGGGSGGGGSFEAIELVPEHQTVPVSIGVPATLRCSMKGEAIGNYYINWYRKTQGNTMTFIYREKDIYGPGFKDNFQGDIDIAKNLAVLKILAPSERDEGSYYCACDTLGMGGEYTDKLIFGKGTRVTVEPRSQPHTKPSVFVMKNGTNVACLVKEFYPKDIRINLVSSKKITEFDPAIVISPSGKYNAVKLGKYEDSNSVTCSVQHDNKTVHSTDFEVKTDSTDHVKPKETENTKQPSKSCHKPKAIVHTEKVNMMSLTVLGLRMLFAKTVAVNFLLTAKLFFLRAKRSGSGVKQTLNFDLLKLAGDVESNPGPSRAHMTEYKPTVRLATRDDVPRAVRTLAAAFADYPATRHTVDPDRHIERVTELQELFLTRVGLDIGKVWVADDGAAVAVWTTPESVEAGAVFAEIGPRMAELSGSRLAAQQQMEGLLAPHRPKEPAWFLATVGVSPDHQGKGLGSAVVLPGVEAAERAGVPAFLETSAPRNLPFYERLGFTVTADVEVPEGPRTWCMTRKPGA | robust induction of GFP | robust induction of GFP | robust induction of GFP | – | –
2 | 22215 (protein) MALPVTALLLPLALLLHAARPACPYINIYNAEPANPSEKNSPTQYAYGTGAVVRGAEFDIQMTQSPSSLSASVGDRVTITCKASDHINNWLAWYQQKPGQAPKLLIYGATTLETGVPSRFSGSGSGTDYTLTISSLQPEDFATYYCQQSWNTPWTFGQGTKLEIKRLEDLKNVFPPEVAVFEPSKAEIAHTQKATLVCLATGFYPDHVELSWWVNGKEVHSGVCTDPQPLKEQPALNDSRYCLSSRLRVSATFWQNPRNHFRCQVQFYGLSENDEWTQDRAKPVTQIVSAEAWGRADCGITSASYHQGVLSATILYEILLGKATLYAVLVSALVLMAMVKRKDSRGRAKRSGSGATNFSLLKQAGDVEENPGPTSATMDWIWRILFLVGAATGAHSGPQVQLQESGGGLAQAGGSLRLSCAASGRTFSMGWFRQAPGKEREFVAAITYSGGSPYYASSVRGRFTISRDNAKNTVYLQMNSLKPEDTAVYYCAANPTYGSDWNAENWGQGTQVTVSSGSGGGGSGGGGSGGGGSFEQVQLQQPGAELVKPGASVKMSCKASGYAFSSYWINWMKQKPGQGLEWIGQIYPGDGDTNYNGKFKGRATLTADTSSSTAYMQLSSLTSEDSAVYFCARSITTVVGCAMDYWGQGTSVTVSSTRIQNPDPAVYQLRDSKSSDKSVCLFTDFDSQTNVSQSKDSDVYITDKCVLDMRSMDFKSNSAVAWSNKSDFACANAFNNSIIPEDTFFPSSDVPCDVKLVEKSFETDTNLNFQNLSVIGFRILLLKVAGFNLLMTLRLWSSRAKRSGSGVKQTLNFDLLKLAGDVESNPGPSRGHMTEYKPTVRLATRDDVPRAVRTLAAAFADYPATRHTVDPDRHIERVTELQELFLTRVGLDIGKVWVADDGAAVAVWTTPESVEAGAVFAEIGPRMAELSGSRLAAQQQMEGLLAPHRPKEPAWFLATVGVSPDHQGKGLGSAVVLPGVEAAERAGVPAFLETSAPRNLPFYERLGFTVTADVEVPEGPRTWCMTRKPGA | – | – | – | Raji (3+), Raji-CD19-KO (3+) (refer to approximately 5%, 10%, 20%, 30%, 40% and 50% GFP positive cells) | Raji (3+), Raji-CD19-KO (3+) (refer to approximately 5%, 10%, 20%, 30%, 40% and 50% GFP positive cells)
3 | 22168 (protein) MALPVTALLLPLALLLHAARPEVQLVESGGGLVQPGGSLRLSCEASGFASDDYIIGWFRQAPGKEREGVSCISSKYANTVYTDSVKGRFRLSRGTAKNTVYLQMSALKPEDTAVYYCAMDSRRVTCPEISTMHRNFDSWGQGTLVTVSSGTGGGGSGGGGSGGGGSEFDIQMTQSPSSLSASVGDRVTITCKASDHINNWLAWYQQKPGQAPKLLIYGATTLETGVPSRFSGSGSGTDYTLTISSLQPEDFATYYCQQSWNTPWTFGQGTKLEIKRLEIQNPDPAVYQLRDSKSSDKSVCLFTDFDSQTNVSQSKDSDVYITDKCVLDMRSMDFKSNSAVAWSNKSDFACANAFNNSIIPEDTFFPSSDVPCDVKLVEKSFETDTNLNFQNLSVIGFRILLLKVAGFNLLMTLRLWSSRAKRSGSGVKQTLNFDLLKLAGDVESNPGPTSATMDWIWRILFLVGAATGAHSGPQVQLQESGGGLAQAGGSLRLSCAASGRTFSMGWFRQAPGKEREFVAAITYSGGSPYYASSVRGRFTISRDNAKNTVYLQMNSLKPEDTAVYYCAANPTYGSDWNAENWGQGTQVTVSSGSGGGGSGGGGSGGGGSFEQVQLQQPGAELVKPGASVKMSCKASGYAFSSYWINWMKQKPGQGLEWIGQIYPGDGDTNYNGKFKGRATLTADTSSSTAYMQLSSLTSEDSAVYFCARSITTVVGCAMDYWGQGTSVTVSSTREDLKNVFPPEVAVFEPSKAEIAHTQKATLVCLATGFYPDHVELSWWVNGKEVHSGVCTDPQPLKEQPALNDSRYCLSSRLRVSATFWQNPRNHFRCQVQFYGLSENDEWTQDRAKPVTQIVSAEAWGRADCGITSASYHQGVLSATILYEILLGKATLYAVLVSALVLMAMVKRKDSRGRAKRSGSGATNFSLLKQAGDVEENPGPSRGHMTEYKPTVRLATRDDVPRAVRTLAAAFADYPATRHTVDPDRHIERVTELQELFLTRVGLDIGKVWVADDGAAVAVWTTPESVEAGAVFAEIGPRMAELSGSRLAAQQQMEGLLAPHRPKEPAWFLATVGVSPDHQGKGLGSAVVLPGVEAAERAGVPAFLETSAPRNLPFYERLGFTVTADVEVPEGPRTWCMTRKPGA | – | – | – | 2+ (refer to approximately 5%, 10%, 20%, 30%, 40% and 50% GFP positive cells) | 3+ (refer to approximately 5%, 10%, 20%, 30%, 40% and 50% GFP positive cells)
